The source of these data is patent US20230272011A1 (AVACTA LIFE SCIENCES, published 2023).

For one assay, the target named is rabbit serum albumin (rabbit, UniProt P49065 25-608). In words: binding ELISA on coated albumin, pH 7.4, panel 'Rabbit SA Binding at pH 7.4' (Table 6 gives NA for this pair). The method, then: (§1) Briefly, ELISA was performed as follow:
(§2) Human (Sigma-Aldrich); Cynomolgus and Mouse (Abcam); Equine (Abcam); Canine (Abcam); Mouse (Sigma-Aldrich); Rabbit (Sigma-Aldrich); Porcine (Sigma-Aldrich);, and Rat (Sigma-Aldrich) serum albumin were coated overnight on 96 well plates (Corning Costar) at 1 μg/ml in PBS at the appropriate pH (pH 6.0 or 7.4). Plates were saturated using 5% Casein (Sigma-Aldrich) buffer in PBS. […] Plates were then washed and AFFIMER® proteins were detected using a biotinylated polyclonal antibody anti-Cystatin (R&D System) for 90 minutes. After washing, streptavidin-HRP (Thermo Fisher Scientific) was added and incubated for 30 minutes.
For orientation: In an ELISA, binding on a coated surface is turned into a signal by an enzyme label.

The target in assay [1] is T1, human serum albumin (human, UniProt P02768 25-609).
T1 construct: mature; Bought protein; biotinylated in the Octet and HTRF assays; also called HSA; HuSA
Nature of the assay: binding ELISA on coated albumin, pH 6.0, panel 'HSA Binding at pH 6.0'. On the procedure: as §1, §2

Assay [2] has as its target T1, human serum albumin. Nature of the assay: binding ELISA, coated albumin, pH 7.4. The method, then: as §1, §2
For assay [3], the target named is T2, rat serum albumin (rat, UniProt P02770 25-608). Nature of the assay: binding ELISA, coated albumin, pH 7.4. The method, then:
as §1, §2

The target of another assay is porcine serum albumin (porcine, UniProt P08835 25-607). In words: binding ELISA, coated albumin, pH 7.4. The method, then:
as §1, §2

Assay [4] has as its target T3, cynomolgus serum albumin (cynomolgus).
T3 construct: also called CSA; cyno serum albumin
Nature of the assay: binding ELISA, coated albumin, pH 7.4. On the procedure:
as §1, §2

The target of assay [5] is T1, human serum albumin. In words: Octet biolayer interferometry, biotinylated albumin on SA sensors, pH 7.4. The method, then:
(§3) Biotinylated antigen was captured onto SA sensors at 1 μg/ml for 600 seconds in a buffer comprising PBS-T (0.01% Tween 20)+1% casein at either pH 6.0 or 7.4. Association was carried out for 300 seconds and dissociation for 600 seconds, and regeneration was performed using 10 mM glycine pH 1.5 (GE Healthcare) for 3×5 seconds. All steps were carried out at 1000 rpm and 25° C. Purified AFFIMER® polypeptide in two-fold serial dilutions was analyzed at a starting concentration of approximately 10× K_{D value}. Kinetics analyses were carried out using the Octet data analysis software, subtracting the reference sensor (loaded with antigen), aligning the Y-axis to baseline, and using inter-step correction to align association to dissociation. Savitzky-Golay filtering was applied and the data processed. Analysis of the data was carried out with a 1:1 model, global fit, Rₘₐₓ unlinked by sensor.
Background: BLI is a label-free optical method that tracks binding on a fibre tip over time.

Assay [6] addresses T4, mouse serum albumin (mouse, UniProt P07724 25-608).
T4 construct: also called MSA
The assay is described as above. The method, then:
as §3

For assay [7], the target named is T3, cynomolgus serum albumin. The assay is described as above. The method, then: as §3
The target of assay [8] is T2, rat serum albumin. In words: binding ELISA on coated albumin, pH 6.0, panel 'Rat SA Binding at pH 6.0'. On the procedure: as §1, §2
A further assay has as its target equine serum albumin (equine, UniProt P35747 25-607). Nature of the assay: binding ELISA on coated albumin, pH 7.4, panel 'Equine SA Binding at pH 7.4' (Table 6 gives NA for this pair). On the procedure: as §1, §2
Another assay has as its target T5, recombinant FcRn (Homo sapiens (Human), UniProt P55899 24-297; P61769 21-119, Biotinylated (site and any tag carrying the biotin are not stated); captured on a Biotin CAPture chip.).
T5 construct: Captured on a Biotin CAPture chip; also called biotinylated FcRn (Amsbio); copies: 1 + 1
In words: Biacore, biotinylated FcRn on Biotin CAPture chip, PBS-T pH 6.0. On the procedure: FcRn Biacore binding analysis was performed using Biotin CAPture chip according to the manufacturer's protocol (GE Healthcare). Briefly, Biotin CAPture reagent was run for 300 sec at a 2 μl/min flow rate over surfaces Fc1 and Fc2 followed by the capture of biotinylated FcRn (Amsbio) at 10 μg/mL with a contact time of 50 seconds, run at 10 μl/min delivered to Fc2 only. […] Surface Fc1 and Fc2 regeneration was performed according to the manufacturer's protocol.

Assay [9] deals with T1, human serum albumin. Nature of the assay: BLI (Octet), biotinylated albumin on SA sensor, pH 6.0. The essentials:
(§4)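 Affinity is measured against albumin captured at 1 μg/ml on streptavidin tips, in PBS-T (0.01% Tween 20) plus 1% casein at the stated pH, at 25° C.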

The target of assay [10] is T4, mouse serum albumin. The assay is described as above. The essentials: as §4
Assay [11] addresses T3, cynomolgus serum albumin. The description is as above. The essentials: as §4
The target of assay [12] is T1, human serum albumin. In words: BLI (Octet), biotinylated albumin on SA sensor, pH 7.4. In outline: as §4
The target of assay [13] is T4, mouse serum albumin. The assay is described as above. In outline:
as §4

Assay [14] deals with T3, cynomolgus serum albumin. The description is as above. The essentials: as §4
Another assay has as its target canine serum albumin (canine, UniProt P49822 25-608). In words: binding ELISA on coated albumin, pH 6.0, panel 'Canine SA Binding at pH 6.0'. On the procedure:
as §1, §2

The target of assay [15] is T3, cynomolgus serum albumin. Nature of the assay: binding ELISA on coated albumin, pH 6.0, panel 'CSA Binding at pH 6.0'. The method, then:
as §1, §2

The target in assay [16] is T1, human serum albumin. In words: SPR (Biacore T200), albumin amine-coupled to CM5, Affimer analyte, pH 7.4. The method, then:
(§5) Affinities for mouse, human, and cynomolgus serum were also measured at pH 7.4 for four (4) AFFIMER® binders using surface plasmon resonance (SPR) (FIG. 5, Table 5). […] A concentration titration of AFFIMER® monomers was run as analyte at a flow rate of 30 μl/min or 60 μl/min. Fc2-1, Fc3-1 and Fc4-1 kinetic data was blank subtracted and fit to a 1:1 Langmuir binding model (BIAcore Evalution software; GE) to calculate KD values.
For orientation: Surface plasmon resonance follows binding to a sensor surface in real time, without labels.

The target in assay [17] is T4, mouse serum albumin. Described as above. On the procedure:
as §5

The target of assay [18] is T3, cynomolgus serum albumin. The description is as above. On the procedure: as §5
Assay [19] concerns the target T1, human serum albumin. Nature of the assay: Octet biolayer interferometry, biotinylated albumin on SA sensors, pH 6.0. On the procedure:
as §3

Assay [20] has as its target T4, mouse serum albumin. The assay is described as above. The method, then:
as §3

The target in assay [21] is T3, cynomolgus serum albumin. The assay is described as above. The method, then:
as §3

In assay [22] the target is T6, mouse PD-L1-Fc tagged recombinant antigen (R&D systems) (mouse, UniProt Q9EP73 19-238).
T6 construct: Captured on a Protein A chip; not shown: Fc part of the bought protein, not described
In words: SPR (Biacore), mouse PD-L1-Fc captured on Protein A chip, single cycle kinetics. The method, then: (§6) Aantigen was captured using a Protein A chip (GE Healthcare) and the AFFIMER® ILF format was run as an analyte using single cycle kinetics titrating from a maximum concentration of 1 nM, and regenerating using 10 mM glycine pH 1.5 (GE Healthcare).

A further assay addresses T7, mPD-L1 (mouse, UniProt Q9EP73 19-238, limits assumed).
T7 construct: May be the same reagent as the mouse PD-L1-Fc of the Biacore run
In words: competition ELISA: mPD-L1 pre-incubated with the AFFIMER polypeptide and added to coated mPD-1; blocked ligand mPD-1. On the procedure:
(§7) Briefly, PD-1 was coated overnight on the plate at 1 μg/ml in carbonate buffer. Then plates were saturated using 5% Casein/PBS buffer. […] After saturation, the mix was added to the plates and incubated for 90 minutes. Plates were then washed and the detection polyclonal antibody, biotinylated anti-PD-L1, was added. After washing the plates, streptavidin-HRP was added for 30 minutes. After a final wash, development of the reaction was performed using TMB (Pierce) and the plates were read using a plate reader at 450 nm (FIG. 26C).

Assay [23] deals with T6, mouse PD-L1-Fc tagged recombinant …. In words: Biacore single cycle kinetics, mouse PD-L1-Fc captured on Protein A chip. On the procedure: as §6
For assay [24], the target named is T4, mouse serum albumin. In words: binding ELISA on coated MSA, panel title 'Affimer binding to MSA, pH 7' (legend: pH 7.4). On the procedure:
as §2, §7

In assay [25] the target is T1, human serum albumin. Nature of the assay: Biacore, immobilised HSA, pH 7.4. The method, then: as §5
Assay [26] has as its target T1, human serum albumin. In words: SPR (Biacore), immobilised HSA, pH 7.4. The method, then: as §5

T6 sequence (Q9EP73 19-238 limits assumed): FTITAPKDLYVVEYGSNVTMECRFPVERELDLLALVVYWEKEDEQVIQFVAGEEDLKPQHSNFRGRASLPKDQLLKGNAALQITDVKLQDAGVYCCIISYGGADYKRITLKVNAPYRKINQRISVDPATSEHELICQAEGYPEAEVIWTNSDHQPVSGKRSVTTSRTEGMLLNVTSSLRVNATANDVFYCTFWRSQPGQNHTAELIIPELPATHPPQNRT
T3 sequence (A2V9Z4 25-608): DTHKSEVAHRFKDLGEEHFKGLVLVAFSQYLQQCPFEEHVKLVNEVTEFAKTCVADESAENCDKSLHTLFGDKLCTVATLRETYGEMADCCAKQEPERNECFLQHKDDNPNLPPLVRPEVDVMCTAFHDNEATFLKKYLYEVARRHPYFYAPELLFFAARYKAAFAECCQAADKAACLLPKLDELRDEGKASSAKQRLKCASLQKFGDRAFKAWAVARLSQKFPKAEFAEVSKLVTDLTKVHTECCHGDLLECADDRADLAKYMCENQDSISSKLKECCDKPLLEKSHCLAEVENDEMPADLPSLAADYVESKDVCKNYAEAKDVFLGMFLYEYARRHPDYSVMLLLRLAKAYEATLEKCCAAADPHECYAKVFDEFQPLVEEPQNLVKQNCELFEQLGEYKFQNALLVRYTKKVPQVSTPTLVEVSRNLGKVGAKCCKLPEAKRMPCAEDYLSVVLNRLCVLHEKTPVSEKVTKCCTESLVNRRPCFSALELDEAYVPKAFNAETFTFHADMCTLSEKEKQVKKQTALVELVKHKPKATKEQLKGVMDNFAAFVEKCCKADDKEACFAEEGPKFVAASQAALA
T4 sequence (P07724 25-608 limits assumed): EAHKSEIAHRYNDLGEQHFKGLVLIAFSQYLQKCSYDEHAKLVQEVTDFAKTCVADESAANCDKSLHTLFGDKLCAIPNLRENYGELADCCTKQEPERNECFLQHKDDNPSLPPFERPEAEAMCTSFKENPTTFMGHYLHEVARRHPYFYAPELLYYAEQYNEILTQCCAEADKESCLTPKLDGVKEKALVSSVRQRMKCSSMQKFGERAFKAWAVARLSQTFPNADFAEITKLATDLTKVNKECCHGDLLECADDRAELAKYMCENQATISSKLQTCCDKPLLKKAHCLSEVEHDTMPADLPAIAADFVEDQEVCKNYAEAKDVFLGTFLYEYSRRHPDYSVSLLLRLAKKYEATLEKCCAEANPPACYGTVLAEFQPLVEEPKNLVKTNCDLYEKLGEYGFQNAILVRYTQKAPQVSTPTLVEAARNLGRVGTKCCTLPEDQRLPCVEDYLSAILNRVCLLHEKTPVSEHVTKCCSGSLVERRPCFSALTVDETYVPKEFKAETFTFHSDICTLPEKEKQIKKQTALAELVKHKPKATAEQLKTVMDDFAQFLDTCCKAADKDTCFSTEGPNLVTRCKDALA
T2 sequence (P02770 25-608 limits assumed): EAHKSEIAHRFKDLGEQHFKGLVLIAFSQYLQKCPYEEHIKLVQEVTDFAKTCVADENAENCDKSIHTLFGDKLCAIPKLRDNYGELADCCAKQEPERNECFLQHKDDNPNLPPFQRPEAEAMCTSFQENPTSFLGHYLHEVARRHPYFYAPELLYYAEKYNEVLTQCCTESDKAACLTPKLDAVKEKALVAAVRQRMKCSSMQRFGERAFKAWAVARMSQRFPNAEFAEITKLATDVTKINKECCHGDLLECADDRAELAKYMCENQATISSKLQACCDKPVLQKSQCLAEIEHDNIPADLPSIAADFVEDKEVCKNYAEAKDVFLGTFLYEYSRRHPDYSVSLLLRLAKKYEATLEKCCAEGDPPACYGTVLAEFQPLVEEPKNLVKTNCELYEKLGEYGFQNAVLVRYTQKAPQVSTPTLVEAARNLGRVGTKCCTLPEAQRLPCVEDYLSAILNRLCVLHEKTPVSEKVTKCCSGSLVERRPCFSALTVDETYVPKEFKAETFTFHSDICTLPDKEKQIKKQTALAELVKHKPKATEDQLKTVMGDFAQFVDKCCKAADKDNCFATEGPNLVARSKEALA
T5 sequence (P55899 24-297 limits assumed, chain 1 of 2): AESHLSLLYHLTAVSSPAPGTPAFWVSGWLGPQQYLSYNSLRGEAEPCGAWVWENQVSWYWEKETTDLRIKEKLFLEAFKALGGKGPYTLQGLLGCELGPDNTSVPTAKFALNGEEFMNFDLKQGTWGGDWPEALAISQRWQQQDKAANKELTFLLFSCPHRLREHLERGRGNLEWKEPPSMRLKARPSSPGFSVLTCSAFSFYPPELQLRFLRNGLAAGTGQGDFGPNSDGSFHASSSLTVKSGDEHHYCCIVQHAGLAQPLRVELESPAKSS
T5 sequence (P61769 21-119 limits assumed, chain 2 of 2): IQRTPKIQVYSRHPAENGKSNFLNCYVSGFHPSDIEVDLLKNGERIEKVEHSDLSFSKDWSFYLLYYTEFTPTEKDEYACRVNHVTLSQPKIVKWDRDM
T7 sequence (Q9EP73 19-238 limits assumed): as the sequence (Q9EP73 19-238 limits assumed) above
Sequence of rabbit serum albumin (P49065 25-608 limits assumed): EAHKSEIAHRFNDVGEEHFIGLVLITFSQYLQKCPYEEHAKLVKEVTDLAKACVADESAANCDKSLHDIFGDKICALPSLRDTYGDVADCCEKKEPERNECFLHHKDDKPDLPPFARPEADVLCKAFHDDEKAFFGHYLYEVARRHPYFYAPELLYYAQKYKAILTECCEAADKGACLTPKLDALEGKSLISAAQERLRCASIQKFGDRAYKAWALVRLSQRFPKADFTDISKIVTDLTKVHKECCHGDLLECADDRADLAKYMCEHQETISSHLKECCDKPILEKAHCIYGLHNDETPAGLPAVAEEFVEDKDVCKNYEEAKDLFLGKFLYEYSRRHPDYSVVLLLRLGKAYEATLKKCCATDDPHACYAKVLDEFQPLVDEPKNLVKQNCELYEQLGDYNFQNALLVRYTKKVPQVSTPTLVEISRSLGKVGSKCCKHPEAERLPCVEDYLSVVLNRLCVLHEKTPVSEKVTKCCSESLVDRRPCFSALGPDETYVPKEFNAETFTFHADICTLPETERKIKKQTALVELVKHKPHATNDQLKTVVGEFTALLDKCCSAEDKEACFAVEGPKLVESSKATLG
Sequence of equine serum albumin (P35747 25-607 limits assumed): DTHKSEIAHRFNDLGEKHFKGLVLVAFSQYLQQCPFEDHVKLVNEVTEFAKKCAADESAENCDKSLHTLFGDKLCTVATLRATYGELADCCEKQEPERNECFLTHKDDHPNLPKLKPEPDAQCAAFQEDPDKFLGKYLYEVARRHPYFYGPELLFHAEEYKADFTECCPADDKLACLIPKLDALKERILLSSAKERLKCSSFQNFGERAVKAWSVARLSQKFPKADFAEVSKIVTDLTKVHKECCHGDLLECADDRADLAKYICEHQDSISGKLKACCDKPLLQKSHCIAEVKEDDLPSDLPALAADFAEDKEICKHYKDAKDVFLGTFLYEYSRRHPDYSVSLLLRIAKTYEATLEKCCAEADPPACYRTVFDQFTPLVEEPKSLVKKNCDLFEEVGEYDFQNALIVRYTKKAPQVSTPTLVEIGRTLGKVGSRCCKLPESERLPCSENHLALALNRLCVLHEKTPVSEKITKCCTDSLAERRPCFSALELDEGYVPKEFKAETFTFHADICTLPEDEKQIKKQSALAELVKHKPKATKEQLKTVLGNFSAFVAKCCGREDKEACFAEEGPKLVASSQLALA
Sequence of porcine serum albumin (P08835 25-607 limits assumed): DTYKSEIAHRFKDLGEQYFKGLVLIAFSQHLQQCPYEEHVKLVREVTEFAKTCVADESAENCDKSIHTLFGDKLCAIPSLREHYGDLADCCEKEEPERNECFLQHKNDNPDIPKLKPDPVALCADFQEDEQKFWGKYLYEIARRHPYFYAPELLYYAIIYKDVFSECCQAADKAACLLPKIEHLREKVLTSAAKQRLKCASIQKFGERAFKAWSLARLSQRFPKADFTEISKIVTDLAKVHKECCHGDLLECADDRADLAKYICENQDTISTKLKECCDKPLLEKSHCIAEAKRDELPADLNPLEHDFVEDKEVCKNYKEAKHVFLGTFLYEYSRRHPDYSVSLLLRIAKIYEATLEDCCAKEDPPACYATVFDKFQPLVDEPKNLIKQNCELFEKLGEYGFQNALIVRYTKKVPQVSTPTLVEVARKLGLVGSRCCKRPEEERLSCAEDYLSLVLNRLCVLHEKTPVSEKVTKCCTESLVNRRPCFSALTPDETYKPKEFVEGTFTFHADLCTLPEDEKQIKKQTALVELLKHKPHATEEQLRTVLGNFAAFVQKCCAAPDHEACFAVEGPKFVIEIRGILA
Sequence of canine serum albumin (P49822 25-608 limits assumed): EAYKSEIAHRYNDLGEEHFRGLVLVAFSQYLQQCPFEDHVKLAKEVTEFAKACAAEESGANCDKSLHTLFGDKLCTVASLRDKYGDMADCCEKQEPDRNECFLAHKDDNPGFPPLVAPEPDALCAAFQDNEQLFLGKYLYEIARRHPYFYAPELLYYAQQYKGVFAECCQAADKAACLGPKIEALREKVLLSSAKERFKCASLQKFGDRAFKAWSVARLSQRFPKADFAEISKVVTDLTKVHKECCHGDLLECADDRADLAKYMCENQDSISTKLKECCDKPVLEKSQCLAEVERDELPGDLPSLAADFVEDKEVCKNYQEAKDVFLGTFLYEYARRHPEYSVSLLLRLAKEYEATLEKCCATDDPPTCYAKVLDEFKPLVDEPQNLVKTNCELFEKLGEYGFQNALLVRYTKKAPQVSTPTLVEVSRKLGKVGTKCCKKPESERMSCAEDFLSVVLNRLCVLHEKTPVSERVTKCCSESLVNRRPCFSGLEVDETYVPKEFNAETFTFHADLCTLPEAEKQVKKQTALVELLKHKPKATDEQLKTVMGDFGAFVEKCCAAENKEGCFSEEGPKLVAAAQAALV

B1: HSA-20 (designed binder)
chain: MIPRGLSEAKPATPEIQEIVDKVKPQLEEKTNETYGKLEAVQYKTQVLAGYWAAKWPGSTNYYIKVRAGDNKYMHLKVFNGPFPNTSYDLQADRVLTGYQVDKNKDDELTGFHHHHHH
In general, EC50 (read off the curve) refers to the concentration needed to bring the measured effect to its halfway point. A high value points to a less potent agent. As usually defined, the EC50 is the concentration giving half of the maximal effect. Usually koff stands for a measure of how fast the partners let go of each other. By kon is commonly meant a measure of how fast the partners come together. The term Kd denotes the equilibrium constant for the complex coming apart. On to B1, for which the binding result in the assay with rabbit serum albumin is on record as “binds”; with equine serum albumin, “binds”; with recombinant FcRn it was “no binding”. The “EC50 (read off the curve)” value with human serum albumin [1] is around 7 nM; with rat serum albumin [8], around 1 nM; with canine serum albumin it was around 20 nM; with cynomolgus serum albumin [15] it was around 20 nM. The EC50 was found to be 18.9 nM with human serum albumin [2], 16.1 nM with rat serum albumin [3], 894 nM in the assay with porcine serum albumin and 9.55 nM in the assay with cynomolgus serum albumin [4]. The koff with human serum albumin [5] is 0.00517 s⁻¹; with mouse serum albumin [6] it was 0.0509 s⁻¹; with cynomolgus serum albumin [7], 0.0148 s⁻¹; with human serum albumin [16], 0.0183 s⁻¹; in the assay with mouse serum albumin [17], 0.0981 s⁻¹; with cynomolgus serum albumin [18] it was 0.0199 s⁻¹. Moreover, the figures for the koff with human serum albumin [19], with mouse serum albumin [20] and with cynomolgus serum albumin [21] were 0.00501 s⁻¹, 0.0596 s⁻¹ and 0.00611 s⁻¹, respectively. For the same molecule, the kon with human serum albumin [5] worked out at 128000 M⁻¹ s⁻¹; with mouse serum albumin [6], 81800 M⁻¹ s⁻¹; in the assay with cynomolgus serum albumin [7], 69600 M⁻¹ s⁻¹; with human serum albumin [16] it was 52200 M⁻¹ s⁻¹; with mouse serum albumin [17] it was 115000 M⁻¹ s⁻¹; with cynomolgus serum albumin [18], 47600 M⁻¹ s⁻¹. In addition, the kon is 214000 M⁻¹ s⁻¹ with human serum albumin [19], 117000 M⁻¹ s⁻¹ in the assay with mouse serum albumin [20] and 45700 M⁻¹ s⁻¹ with cynomolgus serum albumin [21]. Moreover, the Kd in the assay with human serum albumin [9] turned out to be 23.4 nM; in the assay with mouse serum albumin [10] it was 511 nM; with cynomolgus serum albumin [11], 133 nM; with human serum albumin [12] it was 40.5 nM; in the assay with mouse serum albumin [13] it was 622 nM; with cynomolgus serum albumin [14], 213 nM. In addition, the Kd is 350 nM with human serum albumin [16], 855 nM in the assay with mouse serum albumin [17] and 419 nM in the assay with cynomolgus serum albumin [18].

B2: AVA04-182 XT20 (designed binder)
chain: MIPRGLSEAKPATPEIQEIVDKVKPQLEEKTNETYGKLEAVQYKTQVLAFALPEFEYMSTNYYIKVRAGDNKYMHLKVFNGPPMIRRKNEVADRVLTGYQVDKNKDDELTGFAEAAAKEAAAKEAAAKEAAAKEAAAKEAAAKMIPRGLSEAKPATPEIQEIVDKVKPQLEEKTNETYGKLEAVQYKTQVLAFALPEFEYMSTNYYIKVRAGDNKYMHLKVFNGPPMIRRKNEVADRVLTGYQVDKNKDDELTGFAEAAAKEAAAKEAAAKEAAAKEAAAKEAAAKMIPRGLSEAKPATPEIQEIVDKVKPQLEEKTNETYGKLEAVQYKTQVLANFFQRRWPGSTNYYIKVRAGDNKYMHLKVFNGPWKFRNTDRGADRVLTGYQVDKNKDDELTGFHHHHHH
One may read the IC50 as the concentration that gives 50% inhibition. A high value points to a need for much substance. Turning to B2, the Kd in assay [22] worked out at 0.0906 nM. The IC50 with mPD-L1 amounted to 135 nM. Also, in [23], the koff was 0.0025 s⁻¹ and the kon worked out at 2.76e+07 M⁻¹ s⁻¹. Moreover, the binding result with mouse serum albumin [24] is “binds”.

B3: HSA-41 CQ (designed binder)
chain: MIPRGLSEAKPATPEIQEIVDKVKPQLEEKTNETYGKLEAVQYKTQVLANFFQRRWPGSTNYYIKVRAGDNKYMHLKVFNGPWKFRNTDRGADRVLTGYQVDKNKDDELTGFAAAGGRAEQKLISEEDLGCAENLYFQGGAAGHHHHHH
notes: Purified in the presence of 5 mM TCEP; also called HSA-41 free C-terminal cysteine format (CQ); HAS-41 CQ
For B3, in the assay with human serum albumin [25], the Kd was 3.21 nM, the koff stood at 0.00663 s⁻¹ and the kon is 2.07e+06 M⁻¹ s⁻¹. Moreover, the Kd with human serum albumin [26] is around 3 nM.
